Results taken from paper PMC4802042.
Blank lines part the entries; values can stand above or below the binder they belong to.

Experiments:
[1] = target: double-phosphorylated JNK1 (phospho-JNK1) (human)
[2] = target: double-phosphorylated JNK1 (phospho-JNK1) (human); remark: listed apart in the source

phosphatase activity for JNK1 dephosphorylation, relative to wild-type MKP7-CD (Fig. 4a) [1]: 10 fold
B1: MKP7-CD (F285A) (domain or fragment)
chain: NIGPTRILPNLYLGCQRDVLNKELMQQNGIGYVLNASNTCPKPDFIPESHFLRVPVNDSFCEKILPWLDKSVDFIEKAKASNGCVLVHCLAGISRSATIAIAYIMKRMDMSLDEAYRFVKEKRPTISPNANFLGQLLDYEKKIKNQ

Km of MKP5-CD for pJNK1 substrate, relative to that of MKP7-CD [2]: 20 fold
B2: MKP5 catalytic domain (MKP5-CD, residues 320-467) (domain or fragment)
chain: AELTPILPFLFLGNEQDAQDLDTMQRLNIGYVINVTTHLPLYHYEKGLFNYKRLPATDSNKQNLRQYFEEAFEFIEEAHQCGKGLLIHCQAGVSRSATIVIAYLMKHTRMTMTDAYKFVKGKRPIISPNLNFMGQLLEFEEDLNNGVT
